According to the nanobody polyreactivity screen of Harvey et al. (2022):

experiment: yeast display, Sf9 membrane polyspecificity reagent, FACS + sequencing; frameworks hold sequencing errors
Method in brief: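 Polyreactivity labels are assigned by the sorting gate from which each nanobody was recovered. The gates were low and high (top ~1%), set on anti-HA fluorescence for expression and streptavidin fluorescence for reagent binding. Before sorting, galactose-induced (36–48 hours) yeast display cells were stained for 1 hour at 4 °C with 10% biotinylated, detergent-solubilized Sf9 membrane reagent.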

Row | Sequence | polyreactivity (PSR sort gate)
1 | QVQLVESGGGLVQAGGSLRLSCAASGGIFPGYAMGWYRQAPGKETELVAAISGSGSSTYYADSVKGRFTISRDHAKNTVYVQMNSLKPEDTAVYYCNVVTRVLPTRFDYWGQGTQVTVSS | high polyreactivity
2 | QVQLVESGGGLVQAGGSLRLSCAASGGIFPPNVMGWYRPAPGKETELVAANSRSGGSTYYADSVKGRFTISRDNAKNTVYLQMNSLTAEDTAVYYCAAANTQRGFRYDYWGQGTQVTVSS | high polyreactivity
3 | QVQLVESGGGLVQAGGSLRLSCAASGGIFPYYAMGWYRQAPGKERELVAGISQNDGRTYYADSVKGRFTISRDNAKNTVYLQMNSLIPDDTAVYYCATEYWYPRYGYWGQGTQVTVSS | low polyreactivity
4 | QVQLVESGGGLVQAGGSLRLSCAASGGIFQGYAMGWYRQAPGKERELVAAISRSGGRTYYADSVKGRFTISRDNAKKTVYLQMNSLKPEDTSVYYCAADIRLSKYDYRGQGTQVTVSS | high polyreactivity
5 | QVQLVESGGGLVQAGGSLRLSCAASGGIFQWYAMGWYRQAPGKVREFVAAITRRGGSTYYAYSVKGRFTISRDNAKNTVYLQMNSLKPEDTAVYYCAARPWADFDYWGQGTQVTVSS | low polyreactivity
6 | QVQLVESGGGLVQAGGSLRLSCAASGGIFRANALGWYRQAPGKERELVAAIRYSGGGTYYADSVKGRFTISRDNAKNTVYLQMNSLKPEDTAVYYCAARYRGRGYVAYDYWGQGTQVTVSS | high polyreactivity
7 | QVQLVESGGGLVQAGGSLRLSCAASGGIFRHNAMGWYRQAPGKEREFVAAISRSGGNTYYADSVKGRFTISRDNAKNTVYLQMNSLKPEDTAVYYCNKIEYDSWADHVYWGQGTQVTVSS | low polyreactivity
8 | QVQLVESGGGLVQAGGSLRLSCAASGGIFRKYAMGWDRQAPGKERDLVAAITSGGGTYYADSVKGRFTISRDNAKNTVLLQMNSQKPEDTAVYYCAARTLYVARRRPYYYWGQGTLVTVSS | high polyreactivity
9 | QVQLVESGGGLVQAGGSLRLSCAASGGIFRVYAMGWYRQAPGKERELVAAISRSGSSTYYAVSVKGRFTISRDNAKNTVYLQMNSLKPEDTAVYYCNAYSQYWLGNNYWGEGTQVTVSS | high polyreactivity
10 | QVQLVESGGGLVQAGGSLRLSCAASGGIFRYYAMGWYRQAPGKERELVAAITSSGTSTYYADSVKGRFTISRDNAKNTVYLQMNSLKPEDTAVYYCAATRTKRKFDYWGQGTQVTVSS | high polyreactivity
11 | QVQLVESGGGLVQAGGSLRLSCAASGGIFSENALGWYRQAPGKERELVAVITTSGGSTYYADSVKGRFTISRDNAKNTVYLQMNSLKPEDTAVYYCAADVLSWEYDYWGQGTQVTVSS | low polyreactivity
12 | QVQLVESGGGLVQAGGSLRLSCAASGGIFSGNDMGWYRHAPGKESEFVAAISWSGGSTYYADSVKGRFTISRDNAKNTVYLQMNSLKPEDTAVYYCAAAHYFLGPQGASFYYWGQGTQVTVSS | low polyreactivity
13 | QVQLVESGGGLVQAGGSLRLSCAASGGIFSVYAMGWYRQAPGKERELVAAITTSGGSTYYADSVKGRFTISRDNAKNTVYLQMNSLKPEDTAVYYCAADYPPTFYYWYEEYEYWGQGTQVTVSS | low polyreactivity
14 | QVQLVESGGGLVQAGGSLRLSCAASGGIFTYYAMGWYRQAPGKERELVAAITWSGGSTYYADSVKGRFTISRDTAKNTVYLQMNSLKPEDTAVYYCNAVVLHVTTDNSTFTTDDYWGQGTQLTVSS | low polyreactivity
15 | QVQLVESGGGLVQAGGSLRLSCAASGGIFVIYAMGWYRQAPGKERELVAAITWGGGTTYYADSVKGRFTISRDNAKNTVYLQMNSLNPEDTAVYYCNADGFVYGWYYYYEGYDYWGQGTQVTVSS | low polyreactivity
16 | QVQLVESGGGLVQAGGSLRLSCAASGGIFVPNDMGWYRQAPGKERELVAAIRDGGSTNYADSVKGRFTISRDNAKNTVYLQMNSLKPEDTAVYYCAADYSLALAKYDYWGQGTQVTVSS | low polyreactivity
17 | QVQLVESGGGLVQAGGSLRLSCAASGGIFVTYTMGWYRQAPGKERELVAGINSRSGSTYADSVKGRFTISRDNAKNTVYLQMNSLKLEDTAVYYCAADRIDLGRASRYGYWGQGTQVTVSS | low polyreactivity
18 | QVQLVESGGGLVQAGGSLRLSCAASGGIFWNYAMGWYRQAPGKERELVAVINTGGRTYYADSVKGRFTISRDNAKYTVYLQMNSLKPEDTAVYYCAAKDFTIHYDYWGQGTQVTVSS | high polyreactivity
19 | QVQLVESGGGLVQAGGSLRLSCAASGGIFYDNAMGWYRQARGKEWELVAAINWSGGSTYYADSVKGRFTISRDNAKNTVYLQMNSLKPDDTAVYYCAASRYFYRTYWNFYGMDYSGQGTQVTVSS | high polyreactivity
20 | QVQLVESGGGLVQAGGSLRLSCAASGGIFYFNAMGWYRQAPGKERELVASITWSGGNTYYADSVKGRFTISRDNAKNTVYLQMNSLKPEDTAVYDCAADTQEYRPTYDYWGQGTQVTVSS | low polyreactivity
21 | QVQLVESGGGLVQAGGSLRLSCAASGGIFYGNVMGWYRQAPGKERQLVADITSVGSTYYADSVKGRFTFSRDNAKYTVYIQMNSLKPEDTAVYYCAAEPDHVAESHSGYDYWGQGTLVTVSS | low polyreactivity
22 | QVQLVESGGGLVQAGGSLRLSCAASGGIFYTYAMGWSRQAPGKERELVAAISARGGSTYYADSVKGRFTISRDIAKNTVYLQMNSLKPDDTAVYYCAAETYILLEYDYWGQGTQVTVSS | high polyreactivity

Row | Sequence | polyreactivity (PSR sort gate)
23 | QVQLVESGGGLVQAGGSLRLSCAASGGISSSNAMGGYRQAPGKERELVAGINSRGGSTYADSVKGRFTISRDNAKNTVYLQMKSLKPEDTAVYYCAAAPTYKWRRKNYDYWGQGTQVTVSS | high polyreactivity
24 | QVQLVESGGGLVQAGGSLRLSCAASGGNFERNAMGWYRQAPGKERELVAAITGSGGRTYYADSVKGRFTISRDNAKITVYLQMNSLKPEDTAVYFCAAVPWWKYKYWGQGTQVTVSS | high polyreactivity
25 | QVQLVESGGGLVQAGGSLRLSCAASGGNFGTNDMGWYRQAPGKERELVAAITSDSGSTYYADSVKGRFTISRDNAKNTVYLQMNSLKPEDTAVYYCAAEDGPWFYRYGYWGQGTQVTVSS | low polyreactivity
26 | QVQLVESGGGLVQAGGSLRLSCAASGGNLPYNVMGRYRQAPGKEWELVAAITSGVNTNYADSVKGRFTISRDNAKNTVYLQMNSLKPEDTAVYYCAARSGGPSDGSGYWGQGTQVTVSS | low polyreactivity
27 | QVQLVESGGGLVQAGGSLRLSCAASGGSFYNYPMGWYRQAPGKERELVAAITYSGVRTNYADSVKGRFTISRDNAKNTVYLQMNSLKPEDTAVYYCAADGLSNVRQMDYWGQGTQVTVSS | low polyreactivity
28 | QVQLVESGGGLVQAGGSLRLSCAASGGTFAPNAMGWYRQAPGKEREFVAAITISGGSTYYADSVKGRFTISRDNAKNTVYLQMNSLKPEDTAVYYCAADYYAWDTYQWYDYWGQGTQVTVSS | high polyreactivity
29 | QVQLVESGGGLVQAGGSLRLSCAASGGTFARYAMGWYRQAPGKERELVAAITRSGGTTYYADSVKGRFTISRDNAKNTVYLQMNSLKPEDTAVYYCAALPIVDYYGYGYWGQGTQVTVSS | high polyreactivity
30 | QVQLVESGGGLVQAGGSLRLSCAASGGTFAVYAMGWYRQAPGKEREWVAAIDSGGRTNYADSVKGRFTISRDNAKNTVYLQMNSLKPEDTAVYYCAADGGGQYVRYDYWGQGTQVTVSS | high polyreactivity
31 | QVQLVESGGGLVQAGGSLRLSCAASGGTFAWYAMGWYRQAPGKERELVAAITSDGITKYADSVKGRFTISRDNAKNTVYLQMNSLKPEDTAVYYCAKDDGPSDWIGRWFDYWGQGTQVTVSS | low polyreactivity
32 | QVQLVESGGGLVQAGGSLRLSCAASGGTFDDYAMGWYRQAPGKERELVAAISSSGGSTYYADSVKGRITISRDNAKNTVYLEMNSLKPDDTAVYYCAVDAFWRHWYYPYESHHDYWGQGTQVTVSS | low polyreactivity
33 | QVQLVESGGGLVQAGGSLRLSCAASGGTFDWNPMGWYRQAPGKERELVASITSGGRTNYADSVKGRFTISRDNAKNTVYLQMNSLKPEDTAVSYCAKYRRSAYPWQTWVGQKFDYWGQGTHVTVSS | low polyreactivity
34 | QVQLVESGGGLVQAGGSLRLSCAASGGTFDWNTMGWYRQAPGKERELVASITSGGRTNYADSVKGRFTISRDNAKNTVYLQMNSLKPEDTAVYYCAIYRRSAYPWQTWVGQKFDYWGQGTQVTVSS | low polyreactivity
35 | QVQLVESGGGLVQAGGSLRLSCAASGGTFEYNAMGWYRQAPGKERELVAAISKSGGRTYYADSVKGRFTISRDNAKNTVYLQMNSLKPEDTAVYYCAKRYVWGQGTQVTVSS | high polyreactivity
36 | QVQLVESGGGLVQAGGSLRLSCAASGGTFFGYAMGWYRQAPGKERELVAAISGSGGRTYYADSVKARFTISRDNAKNTVYLQMNSLKPEDTAVYYCAADATHETYYPFYYWGQGTQVTVSS | high polyreactivity
37 | QVQLVESGGGLVQAGGSLRLSCAASGGTFGAYAMGWYRPAPGKERELVAAISGSGARTYYADSVKGRFTISRDNAKNTVYLQMNSLKPEDTAVYYCAARSTGTRVGEYDYWGQGTQVTVSS | high polyreactivity
38 | QVQLVESGGGLVQAGGSLRLSCAASGGTFGINDMGWYRQAPGKERDLVAAISWSGGDTYYADSVKGRFTISRDNAKNTVYLQRNSLKPEDTAVYYCAADYHYTKSMYYWGQGTQVSVSS | low polyreactivity
39 | QVQLVESGGGLVQAGGSLRLSCAASGGTFGKYTMGWSRQAPGKERELVAAINKSGGSTYYADSVKGRFTISRDNAKNTVYLQMNSLKPEDTAVYYCAAGTYFLSREYNYWGQGTQVTVSS | low polyreactivity
40 | QVQLVESGGGLVQAGGSLRLSCAASGGTFGLNAMGWSRLAPGKARELVADIDGRGGSTYYADSVKGRFTISRDNSKNTVYLQMNSRNPEDTAVYYCAARAPFLSVPSELDYWGQCTQVTVSS | low polyreactivity
41 | QVQLVESGGGLVQAGGSLRLSCAASGGTFGNYAMGWYRQAPGKERELVAAISTRGGSTYYADSVKGRFTISCDNAKNTVYLQMNSLKPEDTAVYYCNARIKRPRGVYGGDYWGQGTQVTVSS | high polyreactivity
42 | QVQLVESGGGLVQAGGSLRLSCAASGGTFGRYAMGWYRQAPGKERELVASITTGGRTNYADSVKGRFTISRDNAKNTVYLQMNSLKPEDTAVYYCAKKRYGYPLPFYYWGQGTQVTVSS | high polyreactivity
43 | QVQLVESGGGLVQAGGSLRLSCAASGGTFGSYAMGWYRQAPAKERELVAAIRSGDRTYYADSVKGRFTISRDNAKNTDYLQMNSLKPEHTAVDYCAAFYHHYYRYDYWGQGTQVTVSS | low polyreactivity
